Target: T1, MqsA (Escherichia coli (strain of the protein not stated)) (UniProt Q46864)
T1 sequence: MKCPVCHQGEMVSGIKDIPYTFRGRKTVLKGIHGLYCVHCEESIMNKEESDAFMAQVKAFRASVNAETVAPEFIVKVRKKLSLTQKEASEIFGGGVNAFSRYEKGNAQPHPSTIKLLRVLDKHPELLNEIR
Assay: EMSA
Conditions: 10 mM Tris-HCl pH 7.5, 50 mM KCl, 1 mM DTT, 1 ug poly(dI.dC), 30-50 fmol labeled probe, ambient temperature, 1 h; 6% gel, 0.5x TBE

Sequence: CGTGTATGTGGTGTGCGTTTTTCCATAACCCCCGCCTCCCTGTTACTTTAGTTATAACCTAAAAGGTTAATTACAGCAATGAAAAAGCACCTAAAAGGTTAGTTAGATGTACGGAGATAGTGACCACACAAAACGTATTCTTTAAGGAAAGTGATTGACCATATAAGAAAGTGGCGCATTAGTAGCGCCAGTTTGAAGCAGGAATTTATAAGGGAAGCTGGAGTCAGGCATCAC (double strand) [p-mqsRA (234 bp)]
- binding: binds
